Reference: the supplement of paper PMC9170038

Test system: MS2 coat protein
Test: apparent KD of MS2 coat protein; designed switch direction (-1 OFF switch, 1 ON switch): -1; higher = weaker reporter binding
Procedure, shortened: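 The buffer was Tris-HCl pH 7.5 with KCl, MgCl2, BSA, DTT, tRNA and Tween-20. In it, SNAP-549-labelled MS2 coat protein was titrated in doubling steps from 0.7 or 1.5 nM to 3 µM over chip-bound RNA switches transcribed by stalled E. coli RNA polymerase on Illumina chips. Apparent KD is the per-design median over clusters of curve fits to normalised fluorescence.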

[1] = Eterna round: R95, input ligand: FMN 200 uM
[2] = Eterna round: R95, input ligand: microRNA oligo, concentration not stated
[3] = Eterna round: R95, input ligand: none
[4] = input ligand: microRNA oligo, concentration not stated

GGUUGGCGAGGAUAUACAUGAGGAUCACCCAUGUGAGAGGAAAAAGUGAGGAAGAAAAGUAGAAGGCGCUGACG [salish99_ex3_r3_002] (puzzle: Exclusion 3)
apparent KD of MS2 coat protein [1]: 142 nM | apparent KD of MS2 coat protein [2]: 60.8 nM | apparent KD of MS2 coat protein [3]: 56.7 nM

GGUUGGCGAGGAUAUACAUGAGGAUCACCCAUGUGGUCCUGAGAUAGAAUAGCCCUUUGUAGAAGGCGCGGGUC [salish99_ex3_r4_044] (Eterna round: R97, puzzle: Exclusion 3)
apparent KD of MS2 coat protein (input ligand: FMN 200 uM): 203 nM | apparent KD of MS2 coat protein (input ligand: none): 166 nM

GGUUGGCGAGGAUAUACAUGAGGAUCACCCAUGUGGUCCUGUGGCUGAUCUAGCCUAUGUAGAAGGCGCAAAUC [salish99_ex3_r4_013] (Eterna round: R97, puzzle: Exclusion 3)
apparent KD of MS2 coat protein (input ligand: FMN 200 uM): 311 nM | apparent KD of MS2 coat protein (input ligand: none): 139 nM

GUAAACGCAGAGGAUAUAUCAGAUCAAAGCUGCAUAGAAGGCUGCACAUGAGGAUCACCCAUGUGGUCUUUAAG [Mat - Exclusion 6 - JL Mod - D4] (Eterna round: R97, puzzle: Exclusion 6)
apparent KD of MS2 coat protein (input ligand: FMN 200 uM): 128 nM | apparent KD of MS2 coat protein (input ligand: none): 18.4 nM

GUAAGGCAUCUAGGAUAUAGUAUACGGCGAACAUGAGGAUCACCCAUGUGUCCGAAUGCGGCGAGCUAGAAGGAGAAAUUGCCC [Enuszarima] (Eterna round: R96, puzzle: Exclusion NG 2)
apparent KD of MS2 coat protein (input ligand: FMN 200 uM): 51.4 nM | apparent KD of MS2 coat protein [4]: 25.4 nM | apparent KD of MS2 coat protein (input ligand: none): 33.4 nM

GUACUGACAGGAUAUACAUGAGGAUCACCCAUGUGCCUUAAUGCUACAAAAGUAGCGAGUAGAAGGGUCUGUAC [Omei Ex3 Model Bachelor's Dilema v12] (Eterna round: R97, puzzle: Exclusion 3)
apparent KD of MS2 coat protein (input ligand: FMN 200 uM): 119 nM | apparent KD of MS2 coat protein (input ligand: none): 20.7 nM

GUAGGGUCAGGAUAUACGGGCGGAGGGAUGUAUUGUAGUUGGUAGAAGGGACAUGAGGAUCACCCAUGUAAGAA [JR_Exclu4_Sub055] (puzzle: Exclusion 4)
apparent KD of MS2 coat protein [2]: 25.3 nM

GUAUAACAUGAGGAUCACCCAUGUCAGGAUAUGCGAAUUUCAUCAAAAGAUGAAAUUUGCAGAAGGGACUGUAC [Omei Ex1 A25] (Eterna round: R97, puzzle: Exclusion 1)
apparent KD of MS2 coat protein (input ligand: FMN 200 uM): 73.9 nM | apparent KD of MS2 coat protein (input ligand: none): 67.6 nM

GUAUAACAUGUAGGAUAUGCAUGGCAAAGCUAUGCAGAAGGACAUGAGGAUCACCCAUGUAAUAGCGUCUGCGUACAGAUGCAA [Mat - Exclusion NG 1 - Mod of JL - D92] (Eterna round: R96, puzzle: Exclusion NG 1)
apparent KD of MS2 coat protein (input ligand: FMN 200 uM): 165 nM | apparent KD of MS2 coat protein [4]: 31 nM | apparent KD of MS2 coat protein (input ligand: none): 33.9 nM

GUAUAGUGAGUCAGGAUAUUAGAGGACCAGUUUCCUAAGAAGGGACAUGAGGAUCACCCAUGUGCAUAGGACGU [Eternabot (Original) Solution 20] (Eterna round: R97, puzzle: Brourd's mod of Exclusion 4)
apparent KD of MS2 coat protein (input ligand: FMN 200 uM): 20.7 nM | apparent KD of MS2 coat protein (input ligand: none): 23 nM

GUAUAUGAUGUAGGAUAUACGAGACAUGAGGAUCACCCAUGUGAGGGAAGGAGAAGGAGAAGAGAGUAGAAGGAUAGAGUGUGA [Default title] (Eterna round: R96, puzzle: Exclusion NG 2)
apparent KD of MS2 coat protein (input ligand: FMN 200 uM): 69.3 nM | apparent KD of MS2 coat protein [4]: 45.7 nM | apparent KD of MS2 coat protein (input ligand: none): 80.6 nM

GUAUGGUGAGGAUAUCGCCCUGCCUGCUCAAAGGCGAUGGACGAGAAGGCACAUGAGGAUCACCCAUGUCUGGG [Eternabot (L2) Solution 65] (Eterna round: R97, puzzle: Exclusion 4)
apparent KD of MS2 coat protein (input ligand: FMN 200 uM): 161 nM | apparent KD of MS2 coat protein (input ligand: none): 539 nM

GUAUGUGGUAAGGAUAUGCAUAAAACCCGCUCCGCAGAAGGUACCACAUGAGGAUCACCCAUGUGAUACCAAUA [EX6 A.16] (Eterna round: R97, puzzle: Exclusion 6)
apparent KD of MS2 coat protein (input ligand: FMN 200 uM): 16.1 nM | apparent KD of MS2 coat protein (input ligand: none): 14.3 nM

GUAUGUUAUGAGGAUAUCGGUGAACAUACACAUCGAGAAGGCAUGACAUGAGGAUCACCCAUGUCAAGGAUGAA [Exclusion 6 - B - 18:a] (puzzle: Exclusion 6)
apparent KD of MS2 coat protein [1]: 34.1 nM | apparent KD of MS2 coat protein [2]: 16.9 nM | apparent KD of MS2 coat protein [3]: 18.3 nM

GUCACAUGGACAUAGGAUCACAUGAGGAUCACCCAUGUGACUAACAAGCUUUUUGCUCGUCUUAUGUCCAUGUGAAG [Stov1/15-A1] (Eterna round: R97, puzzle: Sensor, turn-off variant 1)
apparent KD of MS2 coat protein (input ligand: FMN 200 uM): 13.2 nM | apparent KD of MS2 coat protein (input ligand: none): 11.7 nM

GUCACAUGGGUGUAGAAUCACAUGAGGAUCACCCAUGUGACUAACAAGCUUUUUGCUCGUCUUAUGUCUAUGUGAAU [Stov1/17-A2] (Eterna round: R97, puzzle: Sensor, turn-off variant 1)
apparent KD of MS2 coat protein (input ligand: FMN 200 uM): 23.3 nM | apparent KD of MS2 coat protein (input ligand: none): 37.2 nM

GUCACUAGAGGAUAUACAAUGGUAUAUGAUCCUAGAGACAAACAUGAGGAUCACCCAUGUAGAAGGCUAGUAUU [Exclusion 2 - 4] (puzzle: Exclusion 2)
apparent KD of MS2 coat protein [2]: 93.4 nM

GUCAGACGAGGAUAUAAAUUUGAUAACAUGAGGAUCACCCAUGUGAUCGAUAGAUCAAAUUUAGAAGGUGUCUGAC [E5/7-B3] (Eterna round: R97, puzzle: Exclusion 5)
apparent KD of MS2 coat protein (input ligand: FMN 200 uM): 487 nM | apparent KD of MS2 coat protein (input ligand: none): 501 nM

GUCAGCUCGUCAGGAUAUACAUGAGGAUCACCCAUGUGAUCAAUAGCAGCUUCGGCUGCAUACAUGUAGAAGGGACGAGCUGAC [ENG2/6-B1] (Eterna round: R96, puzzle: Exclusion NG 2)
apparent KD of MS2 coat protein (input ligand: FMN 200 uM): 55.6 nM | apparent KD of MS2 coat protein [4]: 18.4 nM | apparent KD of MS2 coat protein (input ligand: none): 35.5 nM

GUCAGCUCGUCAGGAUAUACAUGCGUGCUUCGGCACGAAUUUAAGAUCACAUGAGGAUCACCCAUGUAGAAGGGACGAGCUGAU [ENG2/3-B2] (Eterna round: R96, puzzle: Exclusion NG 2)
apparent KD of MS2 coat protein (input ligand: FMN 200 uM): 819 nM | apparent KD of MS2 coat protein [4]: 441 nM | apparent KD of MS2 coat protein (input ligand: none): 600 nM

GUCAGCUCGUCAGGAUAUAUAUACAUGAGGAUCACCCAUGUAAGAUCAGGCUUCGGCCAAUGUAUAUAGAAGGGACGAGCUGAU [ENG2/11-B2] (Eterna round: R96, puzzle: Exclusion NG 2)
apparent KD of MS2 coat protein (input ligand: FMN 200 uM): 721 nM | apparent KD of MS2 coat protein [4]: 458 nM | apparent KD of MS2 coat protein (input ligand: none): 810 nM

GUCAUCACACAUGGGAUCAACAUGAGGAUCACCCAUGUUGCCAAGUUGUUUGCACGUCUUAUAAUACGUUUUUCGAG [Mod-Jxg] (Eterna round: R97, puzzle: Sensor, turn-off variant 1)
apparent KD of MS2 coat protein (input ligand: FMN 200 uM): 21.6 nM | apparent KD of MS2 coat protein (input ligand: none): 28.2 nM

GUCAUCUAUCAUGGGAUAAACAUGAGGAUCACCCAUGUAUACAAGUUUUUUGCUCGUCUUAUAAUAAGAUAGAUGAC [Antenna 4 - Jieux - Sensor, turn-off variant 1] (Eterna round: R97, puzzle: Sensor, turn-off variant 1)
apparent KD of MS2 coat protein (input ligand: FMN 200 uM): 16.6 nM | apparent KD of MS2 coat protein (input ligand: none): 16.1 nM
